Measurements: patent US20030073142A1 (published 2003)

Each binder was assayed against human MHC-I HLA-A2.1 expressed on RMA-S-A2.1 cells (murine TAP-deficient RMA-S cells engineered to express … (human, UniProt A*02:01)) (assay: cell-based or functional assay).
For LLTVSGAWA [test peptide number 539.8 (human IgE CH1 nonamer, Leu Leu Thr Val Ser Gly Ala Trp Ala)], the “HLA-A2.1-specific fluorescence intensity (FACS, surface HLA-A2.1 on TAP-deficient RMA-S-A2.1 cells after overnight incubation with 50 micromoles per liter peptide)” value was 1 log. TQSPSVFPL [test peptide number 539.10 (human IgE CH1 nonamer, Thr Gln Ser Pro Ser Val Phe Pro Leu)] was tested, and the “HLA-A2.1-specific fluorescence intensity (FACS, surface HLA-A2.1 on TAP-deficient RMA-S-A2.1 cells after overnight incubation with 50 micromoles per liter peptide)” value was 1 log. With WVDNKTFSV [test peptide number 539.12 (human IgE CH1 nonamer, Trp Val Asp Asn Lys Thr Phe Ser Val)] the “HLA-A2.1-specific fluorescence intensity (FACS, surface HLA-A2.1 on TAP-deficient RMA-S-A2.1 cells after overnight incubation with 50 micromoles per liter peptide)” value was 1 log. With WLSDRTYTC [test peptide number 539.11 (human IgE CH2 nonamer, Trp Leu Ser Asp Arg Thr Tyr Thr Cys)] the “HLA-A2.1-specific fluorescence intensity (FACS, surface HLA-A2.1 on TAP-deficient RMA-S-A2.1 cells after overnight incubation with 50 micromoles per liter peptide)” value was 1 log. For QLPDARHST [test peptide number 539.9 (human IgE CH4 nonamer, Gln Leu Pro Asp Ala Arg His Ser Thr)], the “HLA-A2.1-specific fluorescence intensity (FACS, surface HLA-A2.1 on TAP-deficient RMA-S-A2.1 cells after overnight incubation with 50 micromoles per liter peptide)” value was 1 log.
